Test results reported in PMC11530598 (2024).

Target: T1, MAP1B LC-mScarlet (Mus musculus (Mouse), UniProt P14873)
T1 chain: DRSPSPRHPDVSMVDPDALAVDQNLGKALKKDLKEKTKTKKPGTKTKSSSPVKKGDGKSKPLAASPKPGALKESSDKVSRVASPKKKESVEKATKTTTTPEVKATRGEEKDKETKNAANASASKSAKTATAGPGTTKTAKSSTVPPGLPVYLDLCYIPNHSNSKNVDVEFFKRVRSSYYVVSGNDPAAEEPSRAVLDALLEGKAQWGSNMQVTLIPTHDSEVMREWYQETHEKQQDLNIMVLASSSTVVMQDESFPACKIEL
Test: TIRF microscopy recruitment assay on microtubules; tested on taxol-stabilised microtubules

binding result: no binding
B1: sfGFP-MAP1B HC^1-532 (protein)
chain: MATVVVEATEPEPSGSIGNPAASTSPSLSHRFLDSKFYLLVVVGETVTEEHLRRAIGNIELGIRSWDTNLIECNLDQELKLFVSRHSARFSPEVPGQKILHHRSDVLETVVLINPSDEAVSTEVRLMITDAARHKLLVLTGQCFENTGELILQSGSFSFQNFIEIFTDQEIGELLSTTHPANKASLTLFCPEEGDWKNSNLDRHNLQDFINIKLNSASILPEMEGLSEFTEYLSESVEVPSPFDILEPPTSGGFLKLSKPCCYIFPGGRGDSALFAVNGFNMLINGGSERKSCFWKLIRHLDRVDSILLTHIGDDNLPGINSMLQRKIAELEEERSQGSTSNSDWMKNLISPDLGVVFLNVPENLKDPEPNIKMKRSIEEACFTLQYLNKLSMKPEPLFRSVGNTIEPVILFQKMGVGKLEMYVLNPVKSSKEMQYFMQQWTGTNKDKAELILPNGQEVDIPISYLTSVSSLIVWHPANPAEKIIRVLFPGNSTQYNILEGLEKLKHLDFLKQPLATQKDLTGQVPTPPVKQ
